Reference: patent US20240182580A1

Columns and labels:
[1] = target: CD74 on human tumour cell lines (human) (UniProt P04233); experiment: flow cytometry on ARD (MM) cells; Table 3 repeats Table 2
[2] = target: CD74 on human tumour cell lines (human) (UniProt P04233); experiment: flow cytometry on ARP-1 (MM) cells; Table 3 repeats Table 2
[3] = target: CD74 on human tumour cell lines (human) (UniProt P04233); experiment: flow cytometry on BDCM (AML) cells; Table 3 repeats Table 2
[4] = target: CD74 on human tumour cell lines (human) (UniProt P04233); experiment: flow cytometry on JVM-13 (CLL) cells; Table 3 repeats Table 2; design: Bmax: unit not given here
[5] = target: CD74 on human tumour cell lines (human) (UniProt P04233); experiment: flow cytometry on SUP-B15 (ALL) cells; Table 3 repeats Table 2; design: Bmax: unit not given here
[6] = target: CD74 on human tumour cell lines (human) (UniProt P04233); experiment: flow cytometry on ARD (MM) cells, one-site specific binding fit
[7] = target: CD74 on human tumour cell lines (human) (UniProt P04233); experiment: flow cytometry on RPMI-6666 (HL) cells; Table 3 repeats Table 2
[8] = target: CD74 on human tumour cell lines (human) (UniProt P04233); experiment: flow cytometry on RPMI-8226 (MM) cells; Table 3 repeats Table 2
[9] = target: CD74 on human tumour cell lines (human) (UniProt P04233); experiment: flow cytometry on SU-DHL-6 (NHL) cells; Table 3 repeats Table 2
[10] = target: CD74 on human tumour cell lines (human) (UniProt P04233); experiment: flow cytometry on BDCM (AML) cells, one-site specific binding fit
[11] = target: CD74 on human tumour cell lines (human) (UniProt P04233); experiment: flow cytometry on JVM-13 (CLL) cells, one-site specific binding fit
[12] = target: CD74 on human tumour cell lines (human) (UniProt P04233); experiment: flow cytometry on SUP-B15 (ALL) cells, one-site specific binding fit
[13] = target: CD74 on human tumour cell lines (human) (UniProt P04233); experiment: flow cytometry on RPMI-6666 (HL) cells, one-site specific binding fit
[14] = target: CD74 on human tumour cell lines (human) (UniProt P04233); experiment: flow cytometry on RPMI-8226 (MM) cells, one-site specific binding fit
[15] = target: CD74 on human tumour cell lines (human) (UniProt P04233); experiment: flow cytometry on SU-DHL-6 (NHL) cells, one-site specific binding fit
[16] = target: CD74 on human tumour cell lines (human) (UniProt P04233); experiment: flow cytometry on ARD (MM) cells, geometric MFI, one-site specific binding fit
[17] = target: CD74 on human tumour cell lines (human) (UniProt P04233); experiment: flow cytometry on ARP-1 (MM) cells, geometric MFI, one-site specific binding fit
[18] = target: CD74 on human tumour cell lines (human) (UniProt P04233); experiment: flow cytometry on BDCM (AML) cells, geometric MFI, one-site specific binding fit
[19] = target: CD74 on human tumour cell lines (human) (UniProt P04233); experiment: flow cytometry on JVM-13 (CLL) cells, geometric MFI, one-site specific binding fit
[20] = target: CD74 on human tumour cell lines (human) (UniProt P04233); experiment: flow cytometry on SUP-B15 (ALL) cells, geometric MFI, one-site specific binding fit
[21] = target: CD74 on human tumour cell lines (human) (UniProt P04233); experiment: flow cytometry on RPMI-6666 (HL) cells, geometric MFI, one-site specific binding fit
[22] = target: CD74 on human tumour cell lines (human) (UniProt P04233); experiment: flow cytometry on RPMI-8226 (MM) cells, geometric MFI, one-site specific binding fit
[23] = target: CD74 on human tumour cell lines (human) (UniProt P04233); experiment: flow cytometry on SU-DHL-6 (NHL) cells, geometric MFI, one-site specific binding fit

Bmax [1]: 190
Kd [1]: 2.6 nM
Bmax [2]: 341
Bmax [3]: 3060
Kd [3]: 4.5 nM
Bmax [4]: 447
Kd [4]: 2.5 nM
Bmax [5]: 680
Kd [5]: 3.5 nM
Kd [6]: 2.6 nM
Bmax [7]: 3880
Kd [7]: 2.3 nM
Bmax [8]: 119
Kd [8]: 3.6 nM
Bmax [9]: 1560
Kd [9]: 2 nM
Kd [10]: 4.5 nM
Kd [11]: 2.5 nM
Kd [12]: 3.5 nM
Kd [13]: 2.3 nM
Kd [14]: 3.6 nM
Kd [15]: 2 nM
Bmax [16]: 190
Bmax [17]: 341
Bmax [18]: 3060
Bmax [19]: 447
Bmax [20]: 680
Bmax [21]: 3880
Bmax [22]: 119
Bmax [23]: 1560
B1: anti-CD74 antibody without conjugation (anti-CD74 IgG of Examples 2 and 3) (antibody, V domains shown)
VH: QVQLVESGGGVVQPGRSLRLSCAASGFNFSDYGMHWVRQAPGKGLEWVAVIWYDGSISYYADSVKGRFTISRDNSKNTLYLQMNSLRAEDTAVYYCARGGTVEHGAVYGTDVWGQGTTVTVSS
VL: DIQMTQSPSSVSASVGDRVTITCRASQGIGSWLAWYQQKPGKAPKLLIYAADRLQSGVPSRFSGSGSGTDFTLTISSLQPEDFATYYCQQYHTYPLTFGGGTKVEIK
